The values below come from patent US20230189844.

One series has as its target Soybean agglutinin (SBA) (UniProt P05046).
The target in series [1] is T1, Soy Bowman-Birk Inhibitor (UniProt P01055).
T1 sequence: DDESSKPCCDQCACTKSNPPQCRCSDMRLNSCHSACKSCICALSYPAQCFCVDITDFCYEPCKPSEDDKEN

Series [2] concerns the target T2, Soy Kunitz Inhibitor (Trypsin Inhibitor from soybean) (UniProt P01070).
T2 sequence: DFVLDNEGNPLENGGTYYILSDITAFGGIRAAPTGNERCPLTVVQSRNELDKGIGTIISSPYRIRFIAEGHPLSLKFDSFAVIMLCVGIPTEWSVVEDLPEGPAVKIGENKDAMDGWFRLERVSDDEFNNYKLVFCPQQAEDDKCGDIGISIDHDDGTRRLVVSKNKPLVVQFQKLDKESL

Sequence of Soybean agglutinin (SBA) (P05046 33-285): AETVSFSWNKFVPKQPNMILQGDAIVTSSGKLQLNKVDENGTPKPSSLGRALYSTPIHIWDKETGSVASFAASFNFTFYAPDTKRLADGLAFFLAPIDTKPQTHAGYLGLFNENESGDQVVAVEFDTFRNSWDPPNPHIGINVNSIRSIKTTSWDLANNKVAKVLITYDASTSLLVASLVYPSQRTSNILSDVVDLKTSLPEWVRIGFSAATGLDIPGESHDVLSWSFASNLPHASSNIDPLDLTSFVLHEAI

As for “Protease derived from Bacillus sp. NCIMB 40484”, the % of anti-nutritional factor degraded (SDS-PAGE band disappearance, 2 hours, 37° C., pH 6.5) was 21% with Soybean agglutinin (SBA), 41% in series [1] and 100% in series [2].
